In patent US20090162366A1:

Tests used:
[1] = molecular target: M2 peptide (influenza A virus, A/Hong Kong/1/68 (H3N2)); assay: ELISA on peptide, Ab 10 µg/ml
[2] = molecular target: M2TDGEKS peptide conjugated with BSA (influenza A virus, A/chicken/Pennsylvania/13552-1/98 (H7N2NSB)); assay: peptide-BSA ELISA; legend: EC50 > 10^-8M: -
[3] = molecular target: M2PHTGS peptide conjugated with BSA (influenza A virus, A/chicken/HongKong/YU427/03 (H9N2)); assay: peptide-BSA ELISA; legend: EC50 > 10^-8M: -
[4] = molecular target: M2GHTGKS peptide conjugated with BSA (influenza A virus, A/chicken/HongKong/SF1/03 (H9N2)); assay: peptide-BSA ELISA; legend: EC50 > 10^-8M: -
[5] = molecular target: M2LTKGS peptide conjugated with BSA (influenza A virus, A/Hong Kong/542/97 (H5N1)); assay: peptide-BSA ELISA; legend: EC50 > 10^-8M: -
[6] = molecular target: M2LTGS peptide conjugated with BSA (influenza A virus, A/Hong Kong/156/97 (H5N1)); assay: peptide-BSA ELISA; legend: EC50 > 10^-8M: -
[7] = molecular target: M2TGEK-BSA conjugate (influenza A virus, A/Netherlands/33/03 (H7N7)); assay: peptide-BSA ELISA; legend: EC50 > 10^-8M: -
[8] = molecular target: M2KTGEKS peptide conjugated with BSA (influenza A virus, A/Quail/Arkansas/16309-7/94 (H7N3NSA)); assay: peptide-BSA ELISA; legend: EC50 > 10^-8M: -
[9] = molecular target: M2HTGEKS peptide conjugated with BSA (influenza A virus, A/chicken/California/1002a/00 (H6N2)); assay: peptide-BSA ELISA; legend: EC50 > 10^-8M: -
[10] = molecular target: M2LTGEKS-BSA conjugate (influenza A virus, A/Hong Kong/1074/99 (H9N2)); assay: peptide-BSA ELISA; legend: EC50 > 10^-8M: -
[11] = molecular target: M2TDGEKS (influenza A virus, A/chicken/Pennsylvania/13552-1/98 (H7N2NSB))
[12] = molecular target: M2PHTGS (influenza A virus, A/chicken/HongKong/YU427/03 (H9N2))
[13] = molecular target: M2LTGEKS (influenza A virus, A/Hong Kong/1074/99 (H9N2))
[14] = molecular target: M2TGEKS (influenza A virus, A/Canada/rv504/2004 (H7N3))
[15] = molecular target: M2HTGEKS (influenza A virus, A/chicken/California/1002a/00 (H6N2))
[16] = molecular target: M2KTGEKS (influenza A virus, A/Quail/Arkansas/16309-7/94 (H7N3NSA))
[17] = molecular target: M2TGE (influenza A virus, A/DK/ST/5048/2001 (H3N8))
[18] = molecular target: M2LTKGS (influenza A virus, A/Hong Kong/542/97 (H5N1))
[19] = molecular target: M2LTGS (influenza A virus, A/Hong Kong/156/97 (H5N1))
[20] = molecular target: M2GHTGKS (influenza A virus, A/chicken/HongKong/SF1/03 (H9N2))
[21] = molecular target: M2TDGEKS peptide conjugated with BSA (influenza A virus, A/chicken/Pennsylvania/13552-1/98 (H7N2NSB)); assay: peptide-BSA ELISA
[22] = molecular target: M2PHTGS peptide conjugated with BSA (influenza A virus, A/chicken/HongKong/YU427/03 (H9N2)); assay: peptide-BSA ELISA
[23] = molecular target: M2GHTGKS peptide conjugated with BSA (influenza A virus, A/chicken/HongKong/SF1/03 (H9N2)); assay: peptide-BSA ELISA
[24] = molecular target: M2LTKGS peptide conjugated with BSA (influenza A virus, A/Hong Kong/542/97 (H5N1)); assay: peptide-BSA ELISA
[25] = molecular target: M2LTGS peptide conjugated with BSA (influenza A virus, A/Hong Kong/156/97 (H5N1)); assay: peptide-BSA ELISA
[26] = molecular target: M2TGEK-BSA conjugate (influenza A virus, A/Netherlands/33/03 (H7N7)); assay: peptide-BSA ELISA
[27] = molecular target: M2KTGEKS peptide conjugated with BSA (influenza A virus, A/Quail/Arkansas/16309-7/94 (H7N3NSA)); assay: peptide-BSA ELISA
[28] = molecular target: M2HTGEKS peptide conjugated with BSA (influenza A virus, A/chicken/California/1002a/00 (H6N2)); assay: peptide-BSA ELISA
[29] = molecular target: M2LTGEKS-BSA conjugate (influenza A virus, A/Hong Kong/1074/99 (H9N2)); assay: peptide-BSA ELISA
[30] = molecular target: M2-BSA conjugate (influenza A virus, A/Hong Kong/1/68 (H3N2)); assay: peptide-BSA ELISA (++ EC50<10^-9M; + 10^-9M<EC50<10^-8M)
[31] = molecular target: M2TES peptide conjugated with BSA (influenza A virus, A/Viet Nam/1203/2004 (H5N1)); assay: as above
[32] = molecular target: M2EG peptide conjugated with BSA (influenza A virus, A/New York/687/1995 (H3N2)); assay: as above
[33] = molecular target: M2KGENS peptide conjugated with BSA (influenza A virus, A/Turkey/VA/158512/02 (H7N2)); assay: as above
[34] = molecular target: M2TGS-BSA conjugate (influenza A virus, A/chicken/Shanghai/F/98 (H9N2)); assay: as above
[35] = molecular target: M2FG peptide conjugated with BSA (influenza A virus, A/X-31 (H3N2)); assay: as above
[36] = molecular target: M2SG peptide conjugated with BSA (influenza A virus, A/swine/Tennessee/25/77 (H1N1)); assay: as above
[37] = molecular target: M2TGE-BSA conjugate (influenza A virus, A/DK/ST/5048/2001 (H3N8)); assay: as above
[38] = molecular target: M2DLTGS peptide conjugated with BSA (influenza A virus, A/Hong Kong/485/97 (H5N1)); assay: as above
[39] = molecular target: M2TGEKS peptide conjugated with BSA (influenza A virus, A/Canada/rv504/2004 (H7N3)); assay: as above

Substance: mouse anti-M2 antibody 14C2
- ELISA(OD450) [1]: 1.97 OD450
- EC50 [2]: > 10 nM
- EC50 [3]: > 10 nM
- EC50 [4]: > 10 nM
- EC50 [5]: > 10 nM
- EC50 [6]: > 10 nM
- EC50 [7]: > 10 nM
- EC50 [8]: > 10 nM
- EC50 [9]: > 10 nM
- EC50 [10]: > 10 nM
- % of O.D. on M2 (SEQ ID NO:1) [11]: < 10%
- % of O.D. on M2 (SEQ ID NO:1) [12]: < 10%
- % of O.D. on M2 (SEQ ID NO:1) [13]: < 10%
- % of O.D. on M2 (SEQ ID NO:1) [14]: < 10%
- % of O.D. on M2 (SEQ ID NO:1) [15]: < 10%
- % of O.D. on M2 (SEQ ID NO:1) [16]: < 10%
- % of O.D. on M2 (SEQ ID NO:1) [17]: < 10%
- % of O.D. on M2 (SEQ ID NO:1) [18]: < 10%
- % of O.D. on M2 (SEQ ID NO:1) [19]: < 10%
- % of O.D. on M2 (SEQ ID NO:1) [20]: < 10%
- EC50 [21]: > 10 nM
- EC50 [22]: > 10 nM
- EC50 [23]: > 10 nM
- EC50 [24]: > 10 nM
- EC50 [25]: > 10 nM
- EC50 [26]: > 10 nM
- EC50 [27]: > 10 nM
- EC50 [28]: > 10 nM
- EC50 [29]: > 10 nM
- EC50 [30]: < 1 nM
- EC50 [31]: < 1 nM
- EC50 [32]: < 1 nM
- EC50 [33]: < 1 nM
- EC50 [34]: < 1 nM
- EC50 [35]: < 1 nM
- EC50 [36]: < 1 nM
- EC50 [37]: < 1 nM
- EC50 [38]: 1 to 10 nM
- EC50 [39]: 1 to 10 nM
